{"source": "the Human Domainome abundance scans (Beltran et al. 2025)", "note": "± gives the uncertainty stated by the source."}
{"experiment": "abundance fitness (aPCA) (normalised: wild type 0, dead -1); higher = more abundant; growth selection in yeast, the domain comes from the species named", "conditions": "Homo sapiens"}
{"substance": "E3 ubiquitin-protein ligase NEDD4-like L190F, Q96PU5", "abundance fitness": "0.051 ± 0.095"}
{"substance": "E3 ubiquitin-protein ligase NEDD4-like V212M, Q96PU5", "abundance fitness": "-0.076 ± 0.076"}
{"substance": "E3 ubiquitin-protein ligase NEDD4-like E200F, Q96PU5", "abundance fitness": "-0.328 ± 0.083"}
{"substance": "E3 ubiquitin-protein ligase NEDD4-like R223G, Q96PU5", "abundance fitness": "-0.696 ± 0.068"}
{"substance": "E3 ubiquitin-protein ligase NEDD4-like P194R, Q96PU5", "abundance fitness": "0.048 ± 0.065"}
{"substance": "E3 ubiquitin-protein ligase NEDD4-like N215D, Q96PU5", "abundance fitness": "0.015 ± 0.086"}
{"substance": "E3 ubiquitin-protein ligase NEDD4-like G198L, Q96PU5", "abundance fitness": "-0.209 ± 0.054"}
{"substance": "E3 ubiquitin-protein ligase NEDD4-like P192L, Q96PU5", "abundance fitness": "-0.173 ± 0.072"}
{"substance": "E3 ubiquitin-protein ligase NEDD4-like M227P, Q96PU5", "abundance fitness": "0.145 ± 0.09"}
{"substance": "E3 ubiquitin-protein ligase NEDD4-like V203I, Q96PU5", "abundance fitness": "-0.293 ± 0.097"}
{"substance": "E3 ubiquitin-protein ligase NEDD4-like P224N, Q96PU5", "abundance fitness": "-1.15 ± 0.18"}
{"substance": "E3 ubiquitin-protein ligase NEDD4-like P191V, Q96PU5", "abundance fitness": "-0.028 ± 0.058"}
{"substance": "E3 ubiquitin-protein ligase NEDD4-like E201S, Q96PU5", "abundance fitness": "-0.124 ± 0.061"}
{"substance": "E3 ubiquitin-protein ligase NEDD4-like N205M, Q96PU5", "abundance fitness": "-0.109 ± 0.055"}
{"substance": "E3 ubiquitin-protein ligase NEDD4-like E189K, Q96PU5", "abundance fitness": "-0.026 ± 0.082"}
{"substance": "E3 ubiquitin-protein ligase NEDD4-like P192G, Q96PU5", "abundance fitness": "-0.064 ± 0.06"}
{"substance": "E3 ubiquitin-protein ligase NEDD4-like W199R, Q96PU5", "abundance fitness": "-0.536 ± 0.065"}
{"substance": "E3 ubiquitin-protein ligase NEDD4-like E200Y, Q96PU5", "abundance fitness": "-0.357 ± 0.072"}
{"substance": "E3 ubiquitin-protein ligase NEDD4-like S231G, Q96PU5", "abundance fitness": "-0.049 ± 0.064"}
{"substance": "E3 ubiquitin-protein ligase NEDD4-like T218W, Q96PU5", "abundance fitness": "-0.084 ± 0.075"}
{"substance": "E3 ubiquitin-protein ligase NEDD4-like V203C, Q96PU5", "abundance fitness": "-0.066 ± 0.097"}
{"substance": "E3 ubiquitin-protein ligase NEDD4-like P196M, Q96PU5", "abundance fitness": "-0.011 ± 0.071"}
{"substance": "E3 ubiquitin-protein ligase NEDD4-like Q220T, Q96PU5", "abundance fitness": "0.163 ± 0.077"}
{"substance": "E3 ubiquitin-protein ligase NEDD4-like W221F, Q96PU5", "abundance fitness": "-0.04 ± 0.084"}
{"substance": "E3 ubiquitin-protein ligase NEDD4-like Q220K, Q96PU5", "abundance fitness": "-0.757 ± 0.12"}
{"substance": "E3 ubiquitin-protein ligase NEDD4-like R223Q, Q96PU5", "abundance fitness": "-0.153 ± 0.082"}
{"substance": "E3 ubiquitin-protein ligase NEDD4-like Y211V, Q96PU5", "abundance fitness": "-0.736 ± 0.06"}
{"substance": "E3 ubiquitin-protein ligase NEDD4-like L195G, Q96PU5", "abundance fitness": "-0.581 ± 0.28"}
{"substance": "E3 ubiquitin-protein ligase NEDD4-like Q187E, Q96PU5", "abundance fitness": "-0.767 ± 0.079"}
